These results are taken from patent publication US12371675B2, “Process and microorganism for synthesis of adipic acid from carboxylic acids” (THE GOVERNING COUNCIL OF THE UNIVERSITY OF TORONTO, priority 2015, dated 2025).

Usually Km stands for the substrate concentration at which the rate is half of its maximum. By kcat is commonly meant the maximal rate divided by the concentration of active sites.

Substrate in data set [1]: O=C(O)/C=C/c1ccccc1
Nature of the data set: Kinetics of purified EREDCA, NADH oxidation at 340 nm, anaerobic. Format: biochemical, Clostridium acetobutylicum DSM 1731. Conditions: other: trans-cinnamic acid, pH 7.0, 30° C., anaerobic. The method, then:
(§1) The C═C reducing activity of EREDs was examined. Enzyme activity of purified EREDs was measured spectrophotometrically in 96-well plates by following incubation for 3-5 min at 30° C. in the anaerobic chamber as described in M. Buhler, H. Simon, Hoppe-Seyler's Zeitschrift fur Physiologische Chemie 1982, 363, 609-625. Buffers and reagents were degassed and sparged with Ar. Reaction mixture contained potassium phosphate (100 mM and pH 7.0), NADH (0.5 mM), indicated substrates, and proteins (0.1-50 μg) in a final volume of 200 μL. Enzyme reactions were monitored by following the decrease in absorbance at 340 nm (ε340 nm=6,220/M·cm) due to oxidation of NADH to NAD+.
(§2) For in vitro biochemical characterization, enzyme activities of purified EREDs were measured with 2-hexenedioic acid, cis-cis-muconic acid, trans-trans muconic acid, trans-cinnamic acid, trans-2-methyl-2-butenoic acid, trans-2-butenoic acid, acrolein, 2-cyclohexen-1-one, and 3-methyl-2-cyclohexenone. […] [Feng, J. et al. Discovery and Characterization of BlsE, a Radical S-Adenosyl-L-methionine Decarboxylase Involved in the Blasticidin S Biosynthetic Pathway. PLoS ONE 8 (2013)].
(§3) To increase the dissolved substrate concentration, 2-hexenedioic acid was dissolved in a reaction mixture containing […] (final concentration) isopropanol, and kinetic constants of EREDBC and EREDCA were determined.

Substrate in data set [2]: O=C(O)C=CCCC(=O)O
The description is as above. Format: biochemical, Clostridium acetobutylicum DSM 1731. Conditions: other: 2-hexenedioic acid in 0.25 mM isopropanol, 2.5 to 35 mM, sigmoidal kinetics, pH 7.0, 30.0 °C. The method, then: as §1, §2, §3

B1: Clostridium acetobutylicum DSM 1731 2-enoate reductase EREDCA, SEQ ID NO: 2 (Clostridium acetobutylicum ATCC 824) (protein)
chain: MNKYKKLFEPIKIGKCEIKNRFALAPMGPLGLADSEGGFNQRGIDYYTERAKGGTGLIITGVTFVDNEVEEHGMPNCPCPTHNPVQFVRTGREMTERIHAYNSKVFLQMSGGFGRVTIPTNLGEFPPVAPSPIQHRWLDKTCRELTVDEIKSIVKKFGEGAFNAKRAGFDGVQIHAVHEGYLIDQFAISLFNHRTDEYGGSLENRLRFAREIVEEIKNRCGEDFPVTLRYSPKSFIKDLRDGALPGEEFVEKGRDLDEGVEAAKLLVSYGYDALDTDVGSYDSWWWSHPPMYQEKGLYRKYAKLMKDTVDVPVICAGRMDDPDMALEAVENGTCDVISLGRPLLADPDYVNKLRSNKCKSIRPCISCQEGCMGRVQHYSMLNCAVNPQACKERANSLTPIIKSKKVLIVGGGVAGCEAARVLALRGHEPVLYEKSNRLGGNLIPGGAPSFKEDDIALADWYTNTLKELNVEVNLNSEVTKEQILNSKFDTVIVATGSTPKVFPLGDDEKVFTAAEVLLGQKDPGETTVVVGGGLVGCELALDLAKKGKKVTIVEALNKILALNGPLCSANSEMLQKLIPFNGIDVKANSKVKGYKNGLLKMETENGIEELPCDSVILSVGYKEENSLYKELEFEIPEIYLLGDARKVSNIMYGIWDAFEVANHI
Consider B1, for which the Km in data set [1] is reported as 0.17 mM; in data set [2] it was 20.47 mM. In data set [1], the kcat amounted to 5.2 s⁻¹.
